{"source": "paper PMC2938385", "about": "(Molecular Biology of the Cell, 2010)", "binders": {"B1": {"name": "GST-anillin (1-91) (domain or fragment, human, UniProt Q9NQW6-2 1-91, looked up)", "chain": "MDPFTEKLLERTRARRENLQRKMAERPTAAPRSMTHAKRARQPLSEASNQQPLSGGEEKSCTKPSPSKKRCSDNTEVEVSNLENKQPVEST"}}, "key": {"[1]": {"target": "T1, mDia3N (mDia3 residues 166-542) (UniProt O70566 166-542)", "T1 sequence (looked up)": "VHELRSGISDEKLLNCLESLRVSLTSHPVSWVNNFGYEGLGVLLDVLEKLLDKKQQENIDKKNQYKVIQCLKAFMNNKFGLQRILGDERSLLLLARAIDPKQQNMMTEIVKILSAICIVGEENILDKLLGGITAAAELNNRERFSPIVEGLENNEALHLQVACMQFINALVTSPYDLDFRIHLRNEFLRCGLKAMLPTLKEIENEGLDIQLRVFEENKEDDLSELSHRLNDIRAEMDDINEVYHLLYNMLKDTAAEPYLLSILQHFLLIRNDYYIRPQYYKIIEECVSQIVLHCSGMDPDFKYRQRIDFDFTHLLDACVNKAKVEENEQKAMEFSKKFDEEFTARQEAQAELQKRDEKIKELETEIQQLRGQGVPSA", "assay": "SPR"}, "[2]": {"target": "T2, mDia2N (mDia2 residues 150-533) (UniProt Q9Z207 150-533)", "T2 sequence (looked up)": "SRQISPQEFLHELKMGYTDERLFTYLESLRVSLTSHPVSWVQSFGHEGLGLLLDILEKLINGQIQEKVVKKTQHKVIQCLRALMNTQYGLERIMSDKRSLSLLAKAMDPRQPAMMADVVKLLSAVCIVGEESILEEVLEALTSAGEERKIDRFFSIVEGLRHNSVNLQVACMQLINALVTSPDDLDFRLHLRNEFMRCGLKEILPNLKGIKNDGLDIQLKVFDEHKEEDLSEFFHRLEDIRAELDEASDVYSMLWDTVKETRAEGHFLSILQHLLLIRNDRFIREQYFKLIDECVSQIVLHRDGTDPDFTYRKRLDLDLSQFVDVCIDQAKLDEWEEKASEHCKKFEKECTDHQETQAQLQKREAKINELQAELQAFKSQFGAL", "assay": "SPR"}}, "data": [{"binder": "B1", "values": [{"measurement": "Kd", "setting": "[1]", "result": 1.02, "unit": "µM"}, {"measurement": "Kd", "setting": "[2]", "result": 0.236, "unit": "µM"}]}]}
